Where “and” joins values, the source holds several entries; their conditions need not be identical. Identical values can stand only once. Like-named read-outs stand apart in the source and are kept apart here.
Tests used:
HB-EGF = HB-EGF (UniProt Q99075); test: biotin-ligand binding; settings: Fc fusion
TGF-α [1] = target: TGF-α (UniProt P01135); test: biotin-ligand binding; settings: Fc fusion
Target sequence in this assay (P01135 40-89): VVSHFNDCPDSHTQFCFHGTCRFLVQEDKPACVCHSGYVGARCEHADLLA

EGF [2] = target: EGF (UniProt P01133); test: Eu-ligand saturation binding; settings: Fc fusion
EGF [3] = target: EGF (UniProt P01133); test: Eu-EGF competition; settings: Fc fusion
NRG1-β [4] = target: NRG1-β (UniProt Q02297); settings: Fc fusion
Target sequence in this assay (Q02297 other isoform, or with tags, fused parts or gaps): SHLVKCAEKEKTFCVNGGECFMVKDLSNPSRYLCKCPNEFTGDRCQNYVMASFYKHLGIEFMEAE

NRG1-β [5] = target: NRG1-β (UniProt Q02297); test: 125I-NRG1-β saturation binding, heterodimer immobilised on anti-Fc coated plate
Target sequence in this assay (Q02297 other isoform, or with tags, fused parts or gaps limits assumed): as the sequence (Q02297 other isoform, or with tags, fused parts or gaps) above

TGF-α [6] = target: TGF-α (UniProt P01135); test: 125I-TGF-a saturation binding, heterodimer immobilised on anti-Fc coated plate; not saturated at 100 nM
Target sequence in this assay (P01135 40-89 limits assumed): as the sequence (P01135 40-89) above

TGF-α [7] = target: TGF-α (UniProt P01135); settings: Fc fusion
Target sequence in this assay (P01135 40-89): as above

Sequence of EGF (P01133 971-1023): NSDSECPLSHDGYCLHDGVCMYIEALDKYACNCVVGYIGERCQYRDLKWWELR
Sequence of HB-EGF (Q99075 63-148): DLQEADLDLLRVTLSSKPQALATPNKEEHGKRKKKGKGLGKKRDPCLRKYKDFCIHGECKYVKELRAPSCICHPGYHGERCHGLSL

Substance “RB222 (from UniProt P00533 25-645; P21860 20-643)” has a Kd (HB-EGF) of 1.58 nM and a Kd (TGF-α [1]) of 42.6 nM.
“RB242 (from UniProt P00533 25-645; P21860 20-643)” showed a Kd (EGF [2]) of 0.77 nM and a Ki (EGF [3]) of 0.89 nM.
For HER3:Fc (from UniProt P21860 20-643), the Kd (NRG1-β [4]) was 17.1 nM and 17 nM.
In the case of “RB222 (from UniProt P00533 25-645; P21860 20-643) (Fc fusion)”, the Kd (NRG1-β [5]) is reported as 1.6 nM and the Kd (TGF-α [6]) is reported as > 30 nM.
“EGFRT15S:Fc homodimer (from UniProt P00533 25-645)” showed a Kd (TGF-α [7]) of 1.7 nM.

Source: patent US20100278801A1
